± gives the standard deviation of the averaged measurements.
B1: library; a variant is named by its letters at N, in order (parent)
chain: GCUGUCACCGGUGUAUUACCCUAGUGGUCGACCGGUCUGAUGAGUCUNNNNNNAGACGAAACAGC

Legend:
[1] = variants of: B1; assay: normalized RNA/DNA level with ligand (relative to sTRSVctl = 100) (log10 (% of sTRSVctl)); ligand: hypoxanthine (xanthine aptamer); higher = less ribozyme self-cleavage, higher mRNA level; conditions: ligand concentration (+) RNA-Seq: 5 mM, HEK293T, reporter: mCherry (pCS4076), ligand present: yes
Procedure, shortened: (§1)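 RNA level was computed as RNA reads over DNA reads divided by a spiked-in non-cleaving sequence or by the top sequences, then scaled and log-transformed. Scaling was ×100 with log10, the top group was 25 sequences, and the threshold was ≥100 DNA reads. The reads came from HEK293T cells transfected at 4 µg per 6-well well with ribozyme switch library plasmids (mCherry, or eGFP in some ligand experiments). Total RNA was extracted with EDTA 72 h after transfection, with any ligand added 1 h before it.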

[2] = variants of: B1; assay: normalized RNA/DNA level without ligand (relative to sTRSVctl = 100) (log10 (% of sTRSVctl)); ligand: hypoxanthine (xanthine aptamer); higher = less ribozyme self-cleavage, higher mRNA level; conditions: HEK293T, reporter: mCherry (pCS4076), ligand present: no
Procedure, shortened: as §1

GGCGAA
normalized RNA/DNA level with ligand (log10) [1]: 1.92 ± 0.037
normalized RNA/DNA level without ligand (log10) [2]: 1.801 ± 0.017

GGCGAC
normalized RNA/DNA level with ligand (log10) [1]: 1.93 ± 0.12
normalized RNA/DNA level without ligand (log10) [2]: 1.83 ± 0.021

UGCAGC
normalized RNA/DNA level with ligand (log10) [1]: 1.98 ± 0.074
normalized RNA/DNA level without ligand (log10) [2]: 1.83 ± 0.055

AGCUUU
normalized RNA/DNA level with ligand (log10) [1]: 1.94 ± 0.032
normalized RNA/DNA level without ligand (log10) [2]: 1.908 ± 0.0022

AGCUUA
normalized RNA/DNA level with ligand (log10) [1]: 1.91 ± 0.057
normalized RNA/DNA level without ligand (log10) [2]: 1.85 ± 0.0089

GGCCAG
normalized RNA/DNA level with ligand (log10) [1]: 1.89 ± 0.026
normalized RNA/DNA level without ligand (log10) [2]: 1.67 ± 0.033

GGCCAC
normalized RNA/DNA level with ligand (log10) [1]: 1.997 ± 0.011
normalized RNA/DNA level without ligand (log10) [2]: 1.861 ± 0.0085

GGCCAU
normalized RNA/DNA level with ligand (log10) [1]: 1.957 ± 0.003
normalized RNA/DNA level without ligand (log10) [2]: 1.919 ± 0.018

GGCCAA
normalized RNA/DNA level with ligand (log10) [1]: 1.934 ± 0.015
normalized RNA/DNA level without ligand (log10) [2]: 1.87 ± 0.022

CGCAGG
normalized RNA/DNA level with ligand (log10) [1]: 1.82 ± 0.096
normalized RNA/DNA level without ligand (log10) [2]: 1.348 ± 0.011

CGCAGA
normalized RNA/DNA level with ligand (log10) [1]: 1.9 ± 0.029
normalized RNA/DNA level without ligand (log10) [2]: 1.81 ± 0.082

CGCAGC
normalized RNA/DNA level with ligand (log10) [1]: 1.96 ± 0.041
normalized RNA/DNA level without ligand (log10) [2]: 1.87 ± 0.025

CGCAGU
normalized RNA/DNA level with ligand (log10) [1]: 1.938 ± 0.0028
normalized RNA/DNA level without ligand (log10) [2]: 1.86 ± 0.026

UGCGUU
normalized RNA/DNA level with ligand (log10) [1]: 1.986 ± 0.0098
normalized RNA/DNA level without ligand (log10) [2]: 1.921 ± 0.0049

UGCGUG
normalized RNA/DNA level with ligand (log10) [1]: 1.88 ± 0.027
normalized RNA/DNA level without ligand (log10) [2]: 1.68 ± 0.084

UGCGUC
normalized RNA/DNA level with ligand (log10) [1]: 1.989 ± 0.0044
normalized RNA/DNA level without ligand (log10) [2]: 2.031 ± 0.0052

GGCACA
normalized RNA/DNA level with ligand (log10) [1]: 1.885 ± 0.002
normalized RNA/DNA level without ligand (log10) [2]: 1.86 ± 0.03

GGCACU
normalized RNA/DNA level with ligand (log10) [1]: 2.011 ± 0.0022
normalized RNA/DNA level without ligand (log10) [2]: 1.99 ± 0.025

GGCACC
normalized RNA/DNA level with ligand (log10) [1]: 1.92 ± 0.06
normalized RNA/DNA level without ligand (log10) [2]: 1.85 ± 0.021

GGCACG
normalized RNA/DNA level with ligand (log10) [1]: 1.92 ± 0.022
normalized RNA/DNA level without ligand (log10) [2]: 1.66 ± 0.029

GGCCUU
normalized RNA/DNA level with ligand (log10) [1]: 1.975 ± 0.013
normalized RNA/DNA level without ligand (log10) [2]: 1.968 ± 0.011

GGCCUC
normalized RNA/DNA level with ligand (log10) [1]: 1.99 ± 0.13
normalized RNA/DNA level without ligand (log10) [2]: 1.96 ± 0.084

GGCCUA
normalized RNA/DNA level with ligand (log10) [1]: 1.98 ± 0.063
normalized RNA/DNA level without ligand (log10) [2]: 1.98 ± 0.026

GGGCCC
normalized RNA/DNA level with ligand (log10) [1]: 1.95 ± 0.02
normalized RNA/DNA level without ligand (log10) [2]: 1.98 ± 0.029

GGGCCU
normalized RNA/DNA level with ligand (log10) [1]: 2.06 ± 0.045
normalized RNA/DNA level without ligand (log10) [2]: 2.014 ± 0.0022

GGGACU
normalized RNA/DNA level with ligand (log10) [1]: 1.872 ± 0.0089
normalized RNA/DNA level without ligand (log10) [2]: 1.91 ± 0.024

GGGACC
normalized RNA/DNA level with ligand (log10) [1]: 1.98 ± 0.069
normalized RNA/DNA level without ligand (log10) [2]: 1.86 ± 0.052

GGGACA
normalized RNA/DNA level with ligand (log10) [1]: 1.938 ± 0.016
normalized RNA/DNA level without ligand (log10) [2]: 1.802 ± 0.011

AGCGGU
normalized RNA/DNA level with ligand (log10) [1]: 1.91 ± 0.024
normalized RNA/DNA level without ligand (log10) [2]: 1.55 ± 0.049
